Laboratory results taken from the RNAGym collection of RNA variant scans (doi:10.7554/elife.90254).

B1: LINE1-full (parent)
chain: UACGUAGGUGGUUUUCCCCUGAUAGUGCUAAGGGGGCCUGGAAGUUUGGACUGGGCAGAGCUCAACACAGCGUGGCAAAGUGGCUGUGGCUAGACUGCCUCUCUGGAUUCCUCGUCACUCAGCAGGGCAUCUCUGAGAGAAAUGCC

Variants of: B1
Experiment: self-cleavage, relative activity (ratio to wild type); higher = more cleavage; in vitro, sequencing; the parent is a self-cleaving ribozyme

Row | Variant | self-cleavage
1 | A43U U108C | 1.08
2 | A43U U109A | 1.38
3 | A43U U109C | 1.32
4 | A43U U112C | 1.48
5 | A43U U115C | 1.21
6 | A43U U130A | 1.67
7 | A43U U130C | 2.34
8 | A43U U132A | 1.15
9 | A43U U134C | 1.26
10 | G44A A50U | 0.94
11 | G44A A59G | 0.03
12 | G44A A67G | 0.37
13 | G44A A94G | 0.27
14 | G44A A94U | 0
15 | G44A A117G | 1.21
16 | G44A A129U | 1.43
17 | G44A A140G | 1.34
18 | G44A U46C | 1.06
19 | G44A U47C | 1.51
20 | G44A U91C | 0.65
21 | G44A U96C | 0.13
22 | G44A U100A | 0.85
23 | G44A U134G | 1.02
24 | G44C A64G | 0.24

Row | Variant | self-cleavage
25 | G44C A117U | 1.53
26 | G44C U45C | 1.02
27 | G44C U91C | 0.14
28 | G44C U112C | 1.18
29 | G44U A78G | 1.68
30 | G44U U115A | 1.17
31 | G44U U130A | 1.99
32 | U45A A50G | 0.95
33 | U45A A57C | 0.14
34 | U45A A59C | 1.01
35 | U45A A59G | 0.05
36 | U45A A59U | 0.6
37 | U45A A64G | 0.57
38 | U45A A65G | 0.07
39 | U45A A67U | 0.09
40 | U45A A77U | 1.56
41 | U45A A78G | 1.11
42 | U45A A79G | 1.39
43 | U45A A92C | 0.14
44 | U45A A124U | 1.39
45 | U45A A136U | 1.9
46 | U45A A138G | 1.32
47 | U45A A138U | 1.31
48 | U45A A140G | 1.32

Row | Variant | self-cleavage
49 | U45A A141U | 1.01
50 | U45A C51G | 1.44
51 | U45A C63A | 0.05
52 | U45A C71U | 0.08
53 | U45A C95U | 0.18
54 | U45A C99U | 0.59
55 | U45A G72A | 0.95
56 | U45A G74U | 1.59
57 | U45A G105A | 1.56
58 | U45A G139A | 1.33
59 | U45A U46G | 1.29
60 | U45A U47A | 1.17
61 | U45A U47C | 1.45
62 | U45A U73A | 1.91
63 | U45A U73C | 1.32
64 | U45A U81C | 1.92
65 | U45A U85C | 0.24
66 | U45A U87C | 0.24
67 | U45A U96C | 0.13
68 | U45A U100C | 1.05
69 | U45A U102A | 1.36
70 | U45A U102C | 1.45
71 | U45A U102G | 0
72 | U45A U104C | 1.77

Row | Variant | self-cleavage
73 | U45A U109C | 1.4
74 | U45A U112A | 1.21
75 | U45A U115C | 1.51
76 | U45A U115G | 1.17
77 | U45A U119A | 1.44
78 | U45A U119C | 1.47
79 | U45A U130C | 1.86
80 | U45C A50G | 1
81 | U45C A50U | 1.02
82 | U45C A59C | 0.79
83 | U45C A59U | 1.04
84 | U45C A64U | 0.29
85 | U45C A65G | 0.04
86 | U45C A65U | 0.22
87 | U45C A67G | 1.08
88 | U45C A69G | 0.31
89 | U45C A69U | 0.03
90 | U45C A77C | 1.15
91 | U45C A77U | 1.29
92 | U45C A78U | 1.43
93 | U45C A79G | 1.15
94 | U45C A79U | 1.92
95 | U45C A94U | 0.33
96 | U45C A107U | 1.34

Row | Variant | self-cleavage
97 | U45C A117G | 0
98 | U45C A121G | 1.71
99 | U45C A121U | 1.13
100 | U45C A129G | 1.4
101 | U45C A129U | 1.03
102 | U45C A136G | 1.5
103 | U45C A136U | 1.49
104 | U45C A140U | 1.05
105 | U45C A141U | 1.79
106 | U45C C51A | 0.2
107 | U45C C51U | 1.58
108 | U45C C56A | 0.06
109 | U45C C56U | 0.12
110 | U45C C66U | 0.04
111 | U45C C68U | 0.16
112 | U45C C71A | 0.15
113 | U45C C71U | 0.98
114 | U45C C76U | 1.89
115 | U45C C84A | 0.09
116 | U45C C84U | 0.04
117 | U45C C90U | 0.08
118 | U45C C99U | 1.07
119 | U45C C120G | 2.05
120 | U45C C128U | 1.32

Row | Variant | self-cleavage
121 | U45C C131A | 1.67
122 | U45C G53A | 1.64
123 | U45C G54A | 0.43
124 | U45C G58A | 0.04
125 | U45C G72A | 1.25
126 | U45C G74U | 1.35
127 | U45C G80A | 2.16
128 | U45C G82A | 1.86
129 | U45C G89A | 0.01
130 | U45C G93U | 0.03
131 | U45C G97A | 0.07
132 | U45C G106A | 2
133 | U45C G106U | 1.17
134 | U45C G126U | 1.34
135 | U45C G127A | 0.55
136 | U45C U46A | 0.74
137 | U45C U46C | 1.84
138 | U45C U46G | 1.37
139 | U45C U47A | 1.3
140 | U45C U52C | 0.95
141 | U45C U62C | 0.07
142 | U45C U73A | 1.68
143 | U45C U73C | 1.92
144 | U45C U81C | 0.94

Row | Variant | self-cleavage
145 | U45C U85A | 0.12
146 | U45C U85G | 0.26
147 | U45C U96A | 0.07
148 | U45C U100A | 0.58
149 | U45C U100C | 1.93
150 | U45C U102C | 1.55
151 | U45C U104C | 1.42
152 | U45C U108A | 1.15
153 | U45C U108C | 2.11
154 | U45C U109A | 1.5
155 | U45C U112G | 1.31
156 | U45C U115A | 1.49
157 | U45C U132A | 1.96
158 | U45C U132C | 1.51
159 | U45C U143A | 1.39
160 | U45C U143C | 1.7
161 | U45G A57U | 0.18
162 | U45G A67G | 0.45
163 | U45G A77U | 1.15
164 | U45G A92G | 0.09
165 | U45G A107G | 0
166 | U45G A121C | 2.14
167 | U45G A121G | 0.46
